# Results: patent WO2007088823A1 (dated 2007)
# Biological target: T1, Recombinant Human TNF-α (Strathmann Biotec AG, hTNFa-1000, Lot 090590) (human, UniProt P01375 77-233)
# T1 construct: Bought protein; runs at 17.0 kDa on SDS-PAGE; also called cachectin
# Assay: ELISA, hybridoma culture supernatant on coated proteins (cross-reactivity test)
# T1 sequence (P01375 77-233 limits assumed): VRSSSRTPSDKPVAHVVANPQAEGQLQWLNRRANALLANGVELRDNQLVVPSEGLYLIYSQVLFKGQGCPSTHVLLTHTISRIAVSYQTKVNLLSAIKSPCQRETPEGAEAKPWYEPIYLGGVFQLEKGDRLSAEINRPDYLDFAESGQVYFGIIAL
binder,measurement,value
"ETNF-6 antibody (antibody, V domains shown, Mouse monoclonal antibody, tested as hybridoma culture supernatant; also called ETNF 6 monoclonal antibody) VH: EVQLQQSGPELVKPGASVKISCKASGYSFTAFYMHWVKQSHVKSLEWIGRINPYNGATSYNQNFKAKASLTVDKSSSTAYMELHSLTSEDSAVYYCARSEDWDKTMDYWGQGTSVTVS VL: not shown",binding result,binds
